Laboratory results as given in patent publication US20180272008A1.
Ends that are not written are not given here.

Biological target: IgE of patient serum 3 (human)
Test: ELISA: serum IgE captured on an anti-human IgE coated plate, epitope 2 peptide (FITC-tagged) titrated, fluorescence (RFU)

ERDPYSPSQDPYSPS (also: FITC tag, site not given here) [FITC-tagged epitope 2 peptide of Ara h 2] showed an EC50 (read off the curve) of 10 µM.
